Experimental findings from patent publication US20230279077A1 are described below.

The target in assay [1] is HSV-1 glycoprotein D-Fc fusion protein (HSV-1) (UniProt Q69091). Nature of the assay: phage ELISA, glycoprotein D coated, anti-M13 HRP; well D2.
Assay [2] shares this target. Kind of assay: phage ELISA, glycoprotein D coated, anti-M13 HRP; well G11.
For assay [3] the target is unchanged. Nature of the assay: phage ELISA, glycoprotein D coated, anti-M13 HRP; well A6.
Assay [4] shares this target. Kind of assay: SPR Biacore T200, single cycle kinetics, G-Fc captured on anti-human IgG, 1:1 fit.
Assay [5] has the same target. Nature of the assay: SPR Biacore T200, single cycle kinetics, G-Fc captured on anti-human IgG, 1:1 fit, second run.
The target is the same in assay [6]. Nature of the assay: phage ELISA, glycoprotein D coated, anti-M13 HRP; well F1.
The target is the same in assay [7]. Kind of assay: phage ELISA, glycoprotein D coated, anti-M13 HRP; well H8.
The target is the same in assay [8]. Nature of the assay: phage ELISA, glycoprotein D coated, anti-M13 HRP; well D1.
For assay [9] the target is unchanged. Nature of the assay: phage ELISA, glycoprotein D coated, anti-M13 HRP; well H5.
Assay [10] has the same target. Kind of assay: phage ELISA, glycoprotein D coated, anti-M13 HRP; well D3.
The target is the same in assay [11]. Kind of assay: phage ELISA, glycoprotein D coated, anti-M13 HRP; well H1.
Assay [12] shares this target. Nature of the assay: phage ELISA, glycoprotein D coated, anti-M13 HRP; well D5.
For assay [13] the target is unchanged. Nature of the assay: phage ELISA, glycoprotein D coated, anti-M13 HRP; well F3.
The target is the same in assay [14]. Kind of assay: phage ELISA, glycoprotein D coated, anti-M13 HRP; well C8.
Assay [15] has the same target. Nature of the assay: phage ELISA, glycoprotein D coated, anti-M13 HRP; well B2.
The target is the same in assay [16]. Nature of the assay: SPR single-cycle kinetics, G-Fc captured on anti-human IgG, 25 C, 1:1 Binding fit; item G19, curve Fc=2-1; Table 6 calls the fit to the 1:1 model poor.
Assay [17] shares this target. Kind of assay: SPR single-cycle kinetics, G-Fc captured on anti-human IgG, 25 C, 1:1 Binding fit; item G19 2, curve Fc=3-1; Table 6 calls the fit to the 1:1 model poor.
Assay [18] shares this target. Kind of assay: phage ELISA, glycoprotein D coated, anti-M13 HRP; well C3.
The target is the same in assay [19]. Kind of assay: phage ELISA, glycoprotein D coated, anti-M13 HRP; well C5.
The target is the same in assay [20]. Nature of the assay: SPR, G-Fc captured on anti-human IgG; high end tied to G77 by Table 6.
Assay [21] has the same target. Nature of the assay: phage ELISA, glycoprotein D coated, anti-M13 HRP; well E10.
For assay [22] the target is unchanged. Kind of assay: phage ELISA, glycoprotein D coated, anti-M13 HRP; well H3.
Assay [23] shares this target. Kind of assay: phage ELISA, glycoprotein D coated, anti-M13 HRP; well D6.
The target is the same in assay [24]. Kind of assay: SPR, G-Fc captured on anti-human IgG; low end tied to G44 by Table 6.
For assay [25] the target is unchanged. Kind of assay: phage ELISA, glycoprotein D coated, anti-M13 HRP; well B4.
Assay [26] has the same target. Kind of assay: phage ELISA, glycoprotein D coated, anti-M13 HRP; well C6.

Changes are numbered by the printed parent chain.

B1: 3G-12 (VHH)
VHH: DVQLVESGGGLVQPGGSLRLSCAASGFSFSFKNYAMTWVRQAPGKGLEWVSTMSGGGDETKYADSVKGRFTISRDNTKNTLYLQMNSLKPEDTAVYYCAKGWITTDRFTNTPRGQGTQVTVSS
B1: the A450 nm in assay [1] worked out at 1.01.

B2: 3G-87 (VHH)
VHH: B1 VHH with K32E, T37S, D58G, E59D, T77A, T80M, P112L
For the molecule B2, in [2], the A450 nm was determined as 1.13.

B3: 3-G-41_M13R (VHH, not shown: small tags and cut ends)
VHH: B1 VHH with D1Q, T37S, D58G, E59D, T60I, T77A, R107Q
As to B3, in assay [3], the A450 nm turned out to be 0.805. In assay [4], this molecule came in with a Kd of 0.096 nM, a koff of 0.000274 s⁻¹ and an association rate constant (kon) of 2.85e+06 M⁻¹ s⁻¹. In [5], this molecule yielded a dissociation constant Kd of 0.092 nM, a dissociation rate constant (koff) of 0.000279 s⁻¹ and an on-rate (kon) of 3.05e+06 M⁻¹ s⁻¹.

B4: 3G-6 (VHH)
VHH: B1 VHH with D1Q, A23T, T37S, D58G, E59D, T77A, N110D
In assay [6], B4 displayed an A450 nm of 0.951.

B5: 3G-64 (VHH)
VHH: B1 VHH with D1Q, T37S, G56S, D58G, E59D, T77A, N110D, T111A
B5 returned an A450 nm in [7] of 0.985.

B6: 3G-4 (VHH)
VHH: B1 VHH with D1Q, Q3K, V5E, T37S
B6 registered an A450 nm in assay [8] of 1.09.

B7: 3G-40 (VHH)
VHH: QVKLEESGGGLAQPGGSLRLSCAASGFSFSFKNYAMSWVRQAPGKGLEWVSTMSGGGGDIKYADSVKGRFTISRDNAKNTLYLQMNSLKPEDTAVYYCAKGWIATDQFTNTPRGQGTQVTVSS
In assay [9], B7 registered an A450 nm of 1.09.

B8: 3G-20 (VHH)
VHH: EVQLVESGGGLVQPGGSLTLSCAASGFSFSFENYAMSWVRQAPGKGLEWVSTMSGGGGDIKYADSVKGRFTISRDNAKNTLYLQMNNLKPEDSAVYYCAKGWITTNRLTNTPRGQGTQVTVSS
For B8, in assay [10], the A450 nm was 1.18.

B9: 3G-8 (VHH)
VHH: B8 VHH with E1H, L108F
B9 came in with an A450 nm in assay [11] of 0.933.

B10: 3G-36 (VHH)
VHH: B8 VHH with E1Q, R107Q, L108F
In turn, B10 yielded an A450 nm in [12] of 0.934.

B11: 3G-22 (VHH)
VHH: B8 VHH with E1Q, L108F, T111I
In turn, B11 yielded an A450 nm in [13] of 1.14.

B12: 3G-59 (VHH)
VHH: B8 VHH with E1Q, T105A, L108F
Consider B12, for which the A450 nm in assay [14] is 1.16.

B13: 3G-10 (VHH)
VHH: QVQLVESGGGLVQPGGSLKLSCASSESIFAFKNYAMSWVRQAPGKGLEWVSTMSGGGGDTKYADSVKGRFTISRDNAKNTVYLQMNSLKPEDTAVYYCAKGWITTDQFASAPRGHGTQVTVSS
Consider B13, for which the A450 nm in [15] was 1.14.

B14: 3-G-19_M13R (VHH, not shown: small tags and cut ends)
VHH: QVKLEESGGGLVQPGGSLRLSCTASGFSFAFKDYAMSWVRQAPGKGLEWVSTMSGGGGDTKYADSVKGRFTISRDNNKNTVYLQMNSLKPEDTAVYYCAKGWITTNQFADAPRGQGTQVTVSS
For the molecule B14, in [16], the Kd stood at 1.73 nM, the koff was 0.000368 s⁻¹ and the on-rate (kon) was determined as 213000 M⁻¹ s⁻¹. In assay [17], this molecule had a dissociation constant (Kd) of 1.71 nM, a koff of 0.000368 s⁻¹ and a kon of 216000 M⁻¹ s⁻¹. The molecule further had an A450 nm in assay [18] of 1.07.

B15: 3G-35 (VHH)
VHH: B14 VHH with Q1D, K3Q, E5V, E6D, T23S, F29S, D33N, T105N, D110S
B15: in [19], the A450 nm was found to be 1.13.

B16: 3-G-77_M13R (VHH, not shown: small tags and cut ends)
VHH: B14 VHH with K3Q, E5V, T23S, D33N, T105N, D110F
In [4], B16 registered a Kd of 0.183 nM, a dissociation rate constant (koff) of 0.00093 s⁻¹ and a kon of 5.07e+06 M⁻¹ s⁻¹. In [20], the Kd is 0.2 nM. The molecule further yielded an A450 nm in [21] of 1.25. Besides, in [5], the dissociation constant Kd is 0.18 nM, the koff came out at 0.00102 s⁻¹ and the association rate constant (kon) was 5.67e+06 M⁻¹ s⁻¹.

B17: 3G-24 (VHH)
VHH: B14 VHH with V12A, D33N, N77A, N106D, D110S, Q115H
In the case of B17, in assay [22], the A450 nm came to 1.09.

B18: 3-G-44_M13R (VHH, not shown: small tags and cut ends)
VHH: B14 VHH with K3Q, E5V, D33N, N77A, T80A, N106D, D110T
B18 yielded an A450 nm in assay [23] of 1.05. In assay [4], the equilibrium dissociation constant (Kd) was 0.051 nM, the dissociation rate constant (koff) turned out to be 0.000281 s⁻¹ and the kon is 5.47e+06 M⁻¹ s⁻¹. In assay [5], this molecule displayed a Kd of 0.048 nM, a koff of 0.000299 s⁻¹ and a kon of 6.2e+06 M⁻¹ s⁻¹. Further, the Kd in [24] was determined as 0.05 nM.

B19: 3G-26 (VHH)
VHH: B14 VHH with K3Q, E5V, D33N, N77A, K100E, N106D, D110S
B19: in assay [25], the A450 nm worked out at 0.892.

B20: 3G-43 (VHH)
VHH: B14 VHH with Q1A, K3Q, E5V, T23S, D33N, K100E, T105N, D110S
B20 came in with an A450 nm in assay [26] of 1.19.
